Target: T1, C3aR R161A (human, UniProt Q16581 1-482, R161^ECL2A)
T1 sequence: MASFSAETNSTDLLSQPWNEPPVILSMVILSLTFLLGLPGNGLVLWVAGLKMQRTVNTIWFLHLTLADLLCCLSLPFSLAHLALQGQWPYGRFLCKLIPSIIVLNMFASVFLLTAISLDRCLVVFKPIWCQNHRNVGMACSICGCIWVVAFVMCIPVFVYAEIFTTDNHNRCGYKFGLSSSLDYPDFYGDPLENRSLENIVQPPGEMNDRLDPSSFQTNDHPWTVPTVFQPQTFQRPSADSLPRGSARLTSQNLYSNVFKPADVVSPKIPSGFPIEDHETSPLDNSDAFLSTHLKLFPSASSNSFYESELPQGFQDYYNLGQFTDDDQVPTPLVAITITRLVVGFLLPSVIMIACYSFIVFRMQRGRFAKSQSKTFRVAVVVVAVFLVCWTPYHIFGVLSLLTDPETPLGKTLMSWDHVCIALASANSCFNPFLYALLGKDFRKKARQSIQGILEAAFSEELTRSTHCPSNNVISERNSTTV
Experiment: cell-based or functional assay

decrease of the potency of C3a against the wild type (GloSensor cAMP assay): > 100 fold
B1: His6-SUMOstar-C3a (recombinant human C3a, residues 1-77) (ligand)
chain: not shown

From doi:10.1101/2023.01.18.524551 (bioRxiv, 2023)
